Assay results as given in article PMC2944805, “A Major Determinant of Cyclophilin Dependence and Cyclosporine Susceptibility of Hepatitis C Virus Identified by a Genetic Approach” (PLoS Pathogens, 2010).

Molecular target: T1, 15N-labeled human CyPA (human, UniProt P62937 1-165, 15N-labeled)
T1 construct: human cyclophilin A (CyPA); also called cyclophilin A
Experiment: NMR titration; peptide added stepwise to 15N-labeled CyPA (~0.5 mM); 2D 1H,15N-HSQC, 22°C; 50 mM NaH2PO4/Na2PO4, pH 6.3, 40 mM NaCl, 2 mM EDTA, 1 mM DTT
Details: both partners purified

B1: synthetic WT peptide, residues 304-323 of NS5A (peptide)
peptide: GFPRALPAWARPDYNPPLVE
notes: residues 304-323 of NS5A of HCV JFH-1 (genotype 2a); numbers count on: NS5A itself, not the polyprotein; also called 20-mer peptide (G304-E323); source: synthetic peptide, bought: NEO BioScience
binding result: binds
